B1: CPEB3 Ribozyme (parent)
chain: GGGGGCCACAGCAGAAGCGUUCACGUCGCGGCCCCUGUCAGAUUCUGGUGAAUCUGCGAAUUCUGCUGU

Variants of B1 are the subject of the data set. The data set is described as follows: self-cleavage, relative activity (ratio to wild type); higher = more cleavage; co-transcriptional.
For the variant G17U U20A, the self-cleavage stood at 0.151. The value for G17U U20C was 0.107; that for G17U U20G was 0.192; that for C18G A51C was 0.159.

With G17U U21A, the self-cleavage is 0.367. The value for G17U U21G was 0.0999. The value for C18A G68C was 0.28; that for C18A G68A was 0.357. The same measure for C18U G31U: 0.295. Turning to C18U G31C, the self-cleavage turned out to be 0.178.

On to C18U G31A, for which the self-cleavage worked out at 0.313. The value for C18G A59U was 0.17. The value for C18G A59G was 0.22; that for C18G C45G was 0.113. The value for C18G C45A was 0.0664. Regarding C18G C45U, the self-cleavage was found to be 0.183. The same measure for G17U G41A: 0.152; for G17U G41U: 0.194; for G17U G41C: 0.14. Regarding G17U U62G, the self-cleavage was 0.316. The same measure for G17U U62A: 0.281; for G17U U62C: 0.23; for C18A U36C: 0.142.

With C18A U36A, the self-cleavage came to 0.182. As for C18A G30A, the self-cleavage stood at 0.117.

Turning to C18A G30C, the self-cleavage worked out at 0.133. Regarding C18A G30U, the self-cleavage amounted to 0.132. The value for C18G G19A was 0.114; that for C18G G19U was 0.153.

Regarding C18G U64G, the self-cleavage was found to be 0.159. The value for C18G U64C was 0.1; that for C18G U64A was 0.228; that for C18G C24A was 0.105.

For the variant C18G U61C, the self-cleavage turned out to be 0.209. The same measure for C18G U61G: 0.144; for C18U G28A: 0.909; for C18A G25C: 0.178. The same measure for C18A G25U: 0.0886. The value for G17U U38A was 0.255; that for G17U U38G was 0.149; that for C18U G19C was 0.168. Turning to C18U G19U, the self-cleavage worked out at 0.142.

As to C18U C39A, the self-cleavage is 0.387. The same measure for C18U C39U: 0.551. The same measure for C18G U69G: 0.252.

For the variant C18G U69A, the self-cleavage came out at 0.26. As to C18G U69C, the self-cleavage was found to be 0.352. The value for C18U A42G was 0.579; that for C18U A42C was 0.556. The same measure for C18G U20G: 0.218; for C18G U20C: 0.0509; for C18U G48U: 0.934.

With C18U G48C, the self-cleavage is 0.903. With G17U U36A, the self-cleavage is 0.0699.

Consider G17U U36G, for which the self-cleavage was determined as 0.191. The value for G17U C54G was 0.166; that for C18A U53C was 0.169; that for G17U G47C was 0.69. The same measure for G17U G47A: 0.683; for C18G G41A: 0.113; for C18G G41U: 0.134. The same measure for C18G G41C: 0.0964; for C18G C32A: 0.105; for C18G C32U: 0.195.

In the case of C18G C32G, the self-cleavage was 0.195. The value for C18G G30C was 0.167; that for C18G G30A was 0.236; that for C18G G30U was 0.183. The same measure for C18A A60U: 0.131; for C18U C45A: 0.792. The value for G17U U61A was 0.333; that for C18G C35U was 0.203; that for C18G C35G was 0.151. As for C18A C63U, the self-cleavage stood at 0.151.

With C18A C63G, the self-cleavage is 0.147. The same measure for C18A G47A: 0.232. For C18A G47C, the self-cleavage stood at 0.181. The value for C18A G47U was 0.203.

C18G U44A: the self-cleavage turned out to be 0.116. The same measure for C18G G65A: 0.131; for C18G G65C: 0.141; for C18G G68C: 0.21. The value for C18G G68A was 0.403. On to C18G U36C, for which the self-cleavage worked out at 0.122. The same measure for C18G U36G: 0.145. The value for C18G U36A was 0.12; that for G17U C63G was 0.229. The same measure for G17U C63U: 0.322; for G17U C63A: 0.182; for G17U G31U: 0.169. As to G17U G31A, the self-cleavage came out at 0.191.

Turning to G17U G31C, the self-cleavage is 0.129. The same measure for C18A G19U: 0.12. The value for C18A G19C was 0.0974; that for C18G C63U was 0.136. With C18G C63A, the self-cleavage amounted to 0.179. The value for C18G C57U was 0.145; that for C18G C57A was 0.0895.

Take C18G G28C: the self-cleavage stood at 0.911. The value for C18G G28U was 0.129.

On to C18G A40U, for which the self-cleavage was found to be 0.167. The same measure for C18G A40C: 0.152; for G17U G28A: 0.108. The same measure for G17U G28C: 0.11; for C18U C57A: 0.24; for C18U C57G: 0.271. The value for C18A G37U was 0.121. As to C18A G37A, the self-cleavage turned out to be 0.14. The same measure for C18G C54A: 0.186. On to G17U U64C, for which the self-cleavage is 0.251. Regarding C18G U43C, the self-cleavage was found to be 0.188.

For the variant C18G U43A, the self-cleavage was 0.114. The value for C18G U43G was 0.0435; that for G17U C66G was 0.24. The same measure for C18U G25U: 0.17. The same measure for C18U G25A: 0.157; for C18U G25C: 0.153.

Turning to C18G G31C, the self-cleavage worked out at 0.142. On to C18G G31A, for which the self-cleavage is 0.0986.

For C18G G31U, the self-cleavage was found to be 0.181.

Turning to C18A C32G, the self-cleavage stood at 0.181. The same measure for C18A C32A: 0.192; for C18A C32U: 0.22. The value for C18U C29U was 0.0827; that for C18U C29A was 0.161. The value for C18A G31U was 0.129; that for C18A G31C was 0.124.

C18A G31A: the self-cleavage worked out at 0.187. The same measure for C18A U44G: 0.123; for C18A U44A: 0.185; for C18A U38A: 0.0704. The value for C18A U38C was 0.0484; that for C18G G37C was 0.111; that for C18G G37U was 0.0757. C18G C22A: the self-cleavage was 0.179.

For the variant C18G C22G, the self-cleavage was found to be 0.236. Turning to C18G U46C, the self-cleavage turned out to be 0.15. C18G U46A: the self-cleavage amounted to 0.227. Consider G17U U55A, for which the self-cleavage was determined as 0.177. The value for G17U U55G was 0.238; that for C18A C57A was 0.117; that for C18G U55C was 0.198. The same measure for C18G U55A: 0.126; for G17U C57U: 0.228. The value for G17U U67C was 0.537. G17U U69C: the self-cleavage worked out at 0.874. C18G G48C: the self-cleavage worked out at 0.17. In the case of C18G G48A, the self-cleavage stood at 0.145. For C18G G48U, the self-cleavage amounted to 0.208. The value for G17U U46C was 0.537; that for C18U G47C was 0.911; that for C18U G47A was 0.975. The same measure for C18U G47U: 0.928; for C18G G50A: 0.266. The value for C18G G50U was 0.143. For the variant C18G U53G, the self-cleavage came out at 0.199. Turning to C18G U53C, the self-cleavage is 0.0868. The value for C18G U53A was 0.177. The same measure for G17U C45G: 0.395. For the variant G17U C45U, the self-cleavage is 0.528. G17U G65U: the self-cleavage worked out at 0.292.

Regarding G17U G65A, the self-cleavage was determined as 0.254. The same measure for G17U U53G: 0.336; for G17U U53A: 0.265; for C18U C24G: 0.164. With C18U C24A, the self-cleavage was determined as 0.416. The value for C18G A23C was 0.187.
